We go through eleven molecules from patent publication US20030185819A1 (Biogen, published 2003).

The target in test [1] is T1, VLA-4 (integrin alpha4 beta1) on the human B cell line Ramos (human, UniProt P13612 34-1032; P05556 21-798).
T1 construct: whole, on cells; also called α4β1; VLA-4-expressing cells
The test is described as follows: adhesion assay: inhibition of Ramos cell binding to immobilized rsVCAM1 (n = 14). Here is the method: (§1) Recombinant soluble VCAM1 was prepared and purified essentially as described by Lobb et al., 1991a. Soluble VCAM is diluted to 10 μg/ml in 0.05 M NaHCO₃, (15 mM NaHCO₃, 35 mM Na₂CO₃) pH 9.2. Then 50 μl/well is added into a Linbro Titertek polystyrene 96 well plate, flat bottom, Flow Labs catalog #76-231-05. The plate is incubated at 4° C. overnight.
(§2) For antibody blocking studies, 100 μl/well of murine HP1/2 MAb (anti-VLA-4) typically at 10 μg/ml in RPMI, 2% FBS are added to the rsVCAM1 coated plates and incubated for 30 minutes at room temperature prior to cell binding as described above. MAb HP1/2 (anti-VLA-4) or any recombinant humanized anti-VLA-4 antibody prepared as described herein must be preincubated with labelled cells for 30 minutes at room temperature prior to the cell binding. Concentrations of the antibodies preincubated will vary, but generally concentrations were in the range of about 1 μg/ml.
In these adhesion assays, murine HP1/2 inhibits Ramos cell binding completely at about 40 ng/ml, and half maximally at about 15 ng/ml ([…]). The results of adhesion assays as represented by the calculated half-maximal binding constants using humanized recombinant anti-VLA-4 antibodies made according to the present invention are shown in Table III. The number-(n) of experiments performed for each value is indicated for the recombinant humanized antibodies.

Test [2] deals with T1, VLA-4 (integrin alpha4 beta1) on the …. Kind of test: potency assay of Example 7; which assay is not stated.
Test [3] has the same target. Kind of test: FACS, half-maximal binding to Ramos cells (n = 6). The procedure:
(§3) Briefly, 25 μl cells (4×10^6/ml in FACS buffer (PBS 2% FBS, 0.1% NaN₃) on ice are added to 5 μl of 5 μg/ml FITC or phycoerythrin (PE) conjugated antibody in FACS buffer, and incubated in V-bottomed microtiter wells on ice for 30 minutes. To the wells, 125 μl of FACS buffer is added, the plates are centrifuged at 350×g for 5 minutes, and the supernatant is shaken off. To each well is added 125 μl FACS buffer, then the cells are transferred to 12×75 mm Falcon polystyrene tubes and resuspended to a final volume of 250 μl in FACS buffer. The mixture is analyzed on a Becton Dickinson FACStar. The results of the FACS assays as represented by the calculated half-maximal binding […] Using humanized recombinant anti-VLA-4 antibodies made according to the present invention are shown in Table III and the number (n) of experiments performed for each value is indicated for the humanized antibodies. […] Murine HP1/2 binds half-maximally to Ramos cells at 15 ng/ml. The AS/SVMDY humanized antibody binds half-maximally to Ramos cells at 12 ng/ml. Thus, the two assays (i.e., adhesion and FACS assays) show an excellent correlation for the murine antibody and the humanized AS/SVMDY antibody.

Test [4] has the same target. Kind of test: adhesion assay: inhibition of Ramos cell binding to immobilized rsVCAM1. Here is the method: as §1, §2
(§4) The potency of recombinant Stage 0, Stage 1, Stage 2 and Stage 3 antibodies having the VK1 (DQL) light chain that had been purified from stably transfected YB2/0 cell lines was measured in the adhesion assay, as shown in Table III.

Test [5] shares this target. Kind of test: adhesion assay: inhibition of Ramos cell binding to immobilized rsVCAM1 (n = 2). Here is the method:
as §1, §2

Test [6] shares this target. The test is described as follows: combination of adhesion and FACS assays (n = 3). The procedure: as §1, §2
as §3, with “Thus, the two assays (i.e., adhesion and FACS assays) show an excellent correlation for the murine antibody and the humanized AS/SVMDY antibody.” left out

Test [7] shares this target. The test is described as follows: FACS, half-maximal binding to Ramos cells (n = 1). The procedure:
as §3

For test [8] the target is unchanged. The test is described as follows: FACS, half-maximal binding to Ramos cells (n = 2). Here is the method: as §3
For test [9] the target is unchanged. Kind of test: FACS, half-maximal binding to Ramos cells (n = 3). Here is the method:
as §3

For test [10] the target is unchanged. Kind of test: adhesion assay: inhibition of Ramos cell binding to immobilized rsVCAM1 (n = 4). The procedure:
as §1, §2, §4

Test [11] has the same target. Kind of test: adhesion assay: inhibition of Ramos cell binding to immobilized rsVCAM1 (n = 3). Here is the method:
as §1, §2, §4

T1 sequence (P13612 34-1032, chain 1 of 2): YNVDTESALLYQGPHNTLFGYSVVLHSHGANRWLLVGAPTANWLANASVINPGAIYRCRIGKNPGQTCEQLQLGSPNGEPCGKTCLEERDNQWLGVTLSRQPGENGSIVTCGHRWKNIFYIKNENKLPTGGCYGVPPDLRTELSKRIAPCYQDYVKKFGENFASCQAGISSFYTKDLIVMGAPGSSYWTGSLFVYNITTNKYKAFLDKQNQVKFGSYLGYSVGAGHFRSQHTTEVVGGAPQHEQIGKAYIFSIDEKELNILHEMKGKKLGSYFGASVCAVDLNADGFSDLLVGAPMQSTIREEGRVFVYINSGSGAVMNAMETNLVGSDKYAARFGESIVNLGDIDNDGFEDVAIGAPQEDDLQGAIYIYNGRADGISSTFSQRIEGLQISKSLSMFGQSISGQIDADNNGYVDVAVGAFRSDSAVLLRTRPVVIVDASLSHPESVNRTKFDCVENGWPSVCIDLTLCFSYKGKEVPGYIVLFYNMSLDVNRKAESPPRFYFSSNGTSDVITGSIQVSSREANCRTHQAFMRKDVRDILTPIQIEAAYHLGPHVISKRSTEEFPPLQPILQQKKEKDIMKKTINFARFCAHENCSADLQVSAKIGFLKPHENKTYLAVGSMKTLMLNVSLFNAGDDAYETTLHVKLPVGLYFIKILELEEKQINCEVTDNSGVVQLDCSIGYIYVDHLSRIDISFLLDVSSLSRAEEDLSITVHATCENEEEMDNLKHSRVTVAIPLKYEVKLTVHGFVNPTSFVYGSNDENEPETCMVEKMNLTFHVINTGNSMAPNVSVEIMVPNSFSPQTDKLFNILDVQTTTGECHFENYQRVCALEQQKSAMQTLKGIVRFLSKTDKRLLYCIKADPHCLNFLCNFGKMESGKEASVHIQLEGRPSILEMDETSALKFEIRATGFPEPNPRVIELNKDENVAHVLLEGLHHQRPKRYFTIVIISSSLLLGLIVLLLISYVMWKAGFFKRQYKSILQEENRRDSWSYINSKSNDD
T1 sequence (P05556 21-798, chain 2 of 2): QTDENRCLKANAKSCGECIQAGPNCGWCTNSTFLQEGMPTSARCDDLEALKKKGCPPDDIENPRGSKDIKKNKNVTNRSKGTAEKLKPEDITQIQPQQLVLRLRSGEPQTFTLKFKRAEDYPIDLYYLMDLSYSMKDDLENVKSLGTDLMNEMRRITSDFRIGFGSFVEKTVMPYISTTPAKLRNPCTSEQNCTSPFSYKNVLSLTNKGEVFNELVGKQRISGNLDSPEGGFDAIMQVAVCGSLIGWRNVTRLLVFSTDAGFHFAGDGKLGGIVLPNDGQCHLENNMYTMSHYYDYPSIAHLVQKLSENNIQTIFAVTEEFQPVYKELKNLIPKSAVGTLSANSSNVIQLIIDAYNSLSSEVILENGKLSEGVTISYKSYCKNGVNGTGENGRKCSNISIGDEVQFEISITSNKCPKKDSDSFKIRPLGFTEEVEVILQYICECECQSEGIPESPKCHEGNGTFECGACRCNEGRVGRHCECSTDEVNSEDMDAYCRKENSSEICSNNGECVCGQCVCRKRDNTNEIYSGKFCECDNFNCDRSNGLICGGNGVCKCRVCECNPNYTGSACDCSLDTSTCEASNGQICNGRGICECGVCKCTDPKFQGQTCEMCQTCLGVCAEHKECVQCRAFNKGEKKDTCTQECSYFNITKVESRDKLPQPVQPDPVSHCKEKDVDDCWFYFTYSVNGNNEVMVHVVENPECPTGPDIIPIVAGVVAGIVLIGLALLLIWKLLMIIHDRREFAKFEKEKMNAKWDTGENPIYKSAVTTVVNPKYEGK

B1: Stage 2 (Ser mutant) humanized anti-VLA-4 antibody with VK1 (DQL) light chain (antibody, V domains shown)
VH: QVQLQESGPGLVRPSQTLSLTCTVSGFNIKDTYMHWVRQPPGRGLEWIGRIDPASGDTKYDPKFQVRVTMLVDTSSNQFSLRLSSVTAADTAVYYCADGMWVSTGYALDFWGQGTTVTVSS
VL: DIQLTQSPSSLSASVGDRVTITCKASQSVTNDVAWYQQKPGKAPKLLIYYASNRYTGVPSRFSGSGSGTDFTFTISSLQPEDIATYYCQQDYSSPYTFGQGTKVEIKR
notes: Human IgG1 or IgG4 / kappa; also called Sage 2 (Ser mutant); S mutant
B1: in [1], the IC50 worked out at 0.056 µg/mL. Besides, the “fold lower potency than murine HP1/2” value in [2] is ~4 fold. Besides, the response in test [3] was half-maximal at 0.047 µg/mL (EC50).

B2: Stage 0-B humanized anti-VLA-4 antibody with VK1 (DQL) light chain (antibody, V domains shown)
VH: QVQLQESGPGLVRPSQTLSLTCTVSGFTFSDTYMHWVRQPPGRGLEWIGRIDPASGDTKYDPKFQVRVTMLVDTSKNQFSLRLSSVTAADTAVYYCADGMWVSTGYALDFWGQGTTVTVSS
VL: DIQLTQSPSSLSASVGDRVTITCKASQSVTNDVAWYQQKPGKAPKLLIYYASNRYTGVPSRFSGSGSGTDFTFTISSLQPEDIATYYCQQDYSSPYTFGQGTKVEIK
notes: Human IgG1 or IgG4 heavy and human kappa constant regions; also called STAGE O-B; Stage 0 (Humanized heavy chain)
Turning to B2, in test [4], the IC50 was > 1 µg/mL.

B3: humanized heavy chain of the Stage 2 construct (the Ser mutant) with murine light chain (antibody, V domains shown)
VH: QVQLQESGPGLVRPSQTLSLTCTVSGFNIKDTYMHWVRQPPGRGLEWIGRIDPASGDTKYDPKFQVRVTMLVDTSSNQFSLRLSSVTAADTAVYYCADGMWVSTGYALDFWGQGTTVTVSS
VL: SIVMTQTPKFLLVSAGDRVTITCKASQSVTNDVAWYQQKPGQSPKLLIYYASNRYTGVPDRFTGSGYGTDFTFTISTVQAEDLAVYFCQQDYSSPYTFGGGTKLEI
notes: also called Stage 2 heavy chain / murine light chain
Take B3: the “fold lower potency than murine HP1/2” value in test [2] is ~2.5 fold.

B4: Stage 3 SSE humanized anti-VLA-4 antibody with VK1 (DQL) light chain (antibody, V domains shown)
VH: QVQLQESGPGLVRPSQTLSLTCTVSGFNIKDTYMHWVRQPPGRGLEWIGRIDPASGDTKYDPKFQVRVTMLVDTSSNQFSLRLSSVTSEDTAVYYCADGMWVSTGYALDFWGQGTTVTVSS
VL: DIQLTQSPSSLSASVGDRVTITCKASQSVTNDVAWYQQKPGKAPKLLIYYASNRYTGVPSRFSGSGSGTDFTFTISSLQPEDIATYYCQQDYSSPYTFGQGTKVEIKR
notes: Human IgG1 or IgG4 / kappa; also called VH-SSE
Take B4: the IC50 in test [5] worked out at 0.1 µg/mL. In test [6], the “half-maximal binding constant (adhesion and FACS combined)” value (“half-maximal binding constant” for short) came to 80 ng/mL. In addition, a half-maximal effect in [7] (EC50) was put at 0.04 µg/mL.

B5: Stage 3 KRS humanized anti-VLA-4 antibody with VK1 (DQL) light chain (antibody, V domains shown)
VH: QVQLQESGPGLVRPSQTLSLTCTVSGFNIKDTYMHWVKQRPGRGLEWIGRIDPASGDTKYDPKFQVRVTMLVDTSSNQFSLRLSSVTAADTAVYYCADGMWVSTGYALDFWGQGTTVTVSS
VL: DIQLTQSPSSLSASVGDRVTITCKASQSVTNDVAWYQQKPGKAPKLLIYYASNRYTGVPSRFSGSGSGTDFTFTISSLQPEDIATYYCQQDYSSPYTFGQGTKVEIKR
notes: Human IgG1 or IgG4 / kappa; also called VH-KRS
As to B5, in test [5], the IC50 came to 0.05 µg/mL. In [6], the “half-maximal binding constant” value was 57 ng/mL. In [7], the EC50 was found to be 0.07 µg/mL.

B6: AS/SVMDY humanized anti-VLA-4 antibody (antibody, V domains shown)
VH: QVQLQESGPGLVRPSQTLSLTCTASGFNIKDTYMHWVRQPPGRGLEWIGRIDPASGDTKYDPKFQVRVTMLVDTSSNQFSLRLSSVTAADTAVYYCADGMWVSTGYALDFWGQGTTVTVSS
VL: SIVMTQSPSSLSASVGDRVTITCKASQSVTNDVAWYQQKPGKAPKLLIYYASNRYTGVPDRFSGSGYGTDFTFTISSLQPEDIATYYCQQDYSSPYTFGQGTKVEIKR
notes: Human IgG1 or IgG4 / kappa; also called AS mutant heavy chain combined with the improved light chain (SVMDY); antibody produced by ATCC CRL 11175
B6 yielded an IC50 in test [5] of 0.012 µg/mL. This molecule came in with an EC50 in test [8] of 0.012 µg/mL.

B7: Stage 3 AS humanized anti-VLA-4 antibody with VK1 (DQL) light chain (antibody, V domains shown)
VH: QVQLQESGPGLVRPSQTLSLTCTASGFNIKDTYMHWVRQPPGRGLEWIGRIDPASGDTKYDPKFQVRVTMLVDTSSNQFSLRLSSVTAADTAVYYCADGMWVSTGYALDFWGQGTTVTVSS
VL: DIQLTQSPSSLSASVGDRVTITCKASQSVTNDVAWYQQKPGKAPKLLIYYASNRYTGVPSRFSGSGSGTDFTFTISSLQPEDIATYYCQQDYSSPYTFGQGTKVEIKR
notes: Human IgG1 or IgG4 / kappa; also called VH-AS
For B7, in [5], the IC50 stood at 0.028 µg/mL. The molecule further returned an EC50 in [8] of 0.014 µg/mL.

B8: STAW/SVMDY humanized anti-VLA-4 antibody (antibody, V domains shown)
VH: QVQLQESGPGLVRPSQTLSLTCTVSGFNIKDTYMHWVRQPPGRGLEWIGRIDPASGDTKYDPKFQVRVTMLVDTSSNTAWLRLSSVTAADTAVYYCADGMWVSTGYALDFWGQGTTVTVSS
VL: SIVMTQSPSSLSASVGDRVTITCKASQSVTNDVAWYQQKPGKAPKLLIYYASNRYTGVPDRFSGSGYGTDFTFTISSLQPEDIATYYCQQDYSSPYTFGQGTKVEIKR
notes: Human IgG1 or IgG4 / kappa; also called STAW with VK2 (SVMDY) light chain
For B8, a half-maximal effect in test [9] (EC50) was put at 0.035 µg/mL. This molecule registered an IC50 in test [10] of 0.025 µg/mL.

B9: Stage 3 KAITAS humanized anti-VLA-4 antibody with VK1 (DQL) light chain (antibody, V domains shown)
VH: QVQLQESGPGLVRPSQTLSLTCTVSGFNIKDTYMHWVRQPPGRGLEWIGRIDPASGDTKYDPKFQVKATITADTSSNQFSLRLSSVTAADTAVYYCADGMWVSTGYALDFWGQGTTVTVSS
VL: DIQLTQSPSSLSASVGDRVTITCKASQSVTNDVAWYQQKPGKAPKLLIYYASNRYTGVPSRFSGSGSGTDFTFTISSLQPEDIATYYCQQDYSSPYTFGQGTKVEIKR
notes: Human IgG1 or IgG4 / kappa; also called VH-KAITAS
Regarding B9, the IC50 in [5] turned out to be 0.085 µg/mL. Moreover, the “half-maximal binding constant” value in test [6] came to 90 ng/mL. It took 0.1 µg/mL to reach a half-maximal effect in test [7] (EC50).

B10: Stage 3 STAW humanized anti-VLA-4 antibody with VK1 (DQL) light chain (antibody, V domains shown)
VH: QVQLQESGPGLVRPSQTLSLTCTVSGFNIKDTYMHWVRQPPGRGLEWIGRIDPASGDTKYDPKFQVRVTMLVDTSSNTAWLRLSSVTAADTAVYYCADGMWVSTGYALDFWGQGTTVTVSS
VL: DIQLTQSPSSLSASVGDRVTITCKASQSVTNDVAWYQQKPGKAPKLLIYYASNRYTGVPSRFSGSGSGTDFTFTISSLQPEDIATYYCQQDYSSPYTFGQGTKVEIKR
notes: Human IgG1 or IgG4 / kappa; also called VH-STAW
For the molecule B10, the EC50 in [9] was determined as 0.033 µg/mL. In test [11], the IC50 came to 0.03 µg/mL.

B11: Stage 0-C humanized anti-VLA-4 antibody with VK1 (DQL) light chain (antibody, V domains shown)
VH: QVQLQESGPGLVRPSQTLSLTCTVSGFTFSDTYMHWVRQPPGRGLEWIGRIDPASGDTKYDPKFQVRVTMLVDTSKNQFSLRLSSVTAADTAVYYCARGMWVSTGYALDFWGQGTTVTVSS
VL: DIQLTQSPSSLSASVGDRVTITCKASQSVTNDVAWYQQKPGKAPKLLIYYASNRYTGVPSRFSGSGSGTDFTFTISSLQPEDIATYYCQQDYSSPYTFGQGTKVEIK
notes: Generated from Stage 0-A, which is Stage 1 with D94R; Kabat position 94 is linear position 98 of the humanized VH entries (CDR3 = 99-110); Human IgG1 or IgG4 / kappa; also called STAGE O-C; Stage 0 (Humanized heavy chain)
On to B11, for which the IC50 in [4] was > 1 µg/mL.
